Data reported in patent publication USRE49477 (THOMAS JEFFERSON UNIVERSITY, dated 2023).

Assays:
[1] = target: T1, human procollagen I α2 chain (human, UniProt P08123 23-1366); test: Western blot, procollagen I chains on membrane, anti-human γ-HRP detection
T1 construct: The separated chain as it stood on the Western blot membrane; With the chimeric IgG, a partially degraded form was also positive; also called Pro-α2; collagen α2-chain

[2] = target: T1, human procollagen I α2 chain; test: Western blot, procollagen I chains on membrane, anti-His-HRP detection
[3] = target: T1, human procollagen I α2 chain; test: Western blot, procollagen I chains on membrane, anti-FLAG-HRP detection

T1 sequence (P08123 23-1366 limits assumed): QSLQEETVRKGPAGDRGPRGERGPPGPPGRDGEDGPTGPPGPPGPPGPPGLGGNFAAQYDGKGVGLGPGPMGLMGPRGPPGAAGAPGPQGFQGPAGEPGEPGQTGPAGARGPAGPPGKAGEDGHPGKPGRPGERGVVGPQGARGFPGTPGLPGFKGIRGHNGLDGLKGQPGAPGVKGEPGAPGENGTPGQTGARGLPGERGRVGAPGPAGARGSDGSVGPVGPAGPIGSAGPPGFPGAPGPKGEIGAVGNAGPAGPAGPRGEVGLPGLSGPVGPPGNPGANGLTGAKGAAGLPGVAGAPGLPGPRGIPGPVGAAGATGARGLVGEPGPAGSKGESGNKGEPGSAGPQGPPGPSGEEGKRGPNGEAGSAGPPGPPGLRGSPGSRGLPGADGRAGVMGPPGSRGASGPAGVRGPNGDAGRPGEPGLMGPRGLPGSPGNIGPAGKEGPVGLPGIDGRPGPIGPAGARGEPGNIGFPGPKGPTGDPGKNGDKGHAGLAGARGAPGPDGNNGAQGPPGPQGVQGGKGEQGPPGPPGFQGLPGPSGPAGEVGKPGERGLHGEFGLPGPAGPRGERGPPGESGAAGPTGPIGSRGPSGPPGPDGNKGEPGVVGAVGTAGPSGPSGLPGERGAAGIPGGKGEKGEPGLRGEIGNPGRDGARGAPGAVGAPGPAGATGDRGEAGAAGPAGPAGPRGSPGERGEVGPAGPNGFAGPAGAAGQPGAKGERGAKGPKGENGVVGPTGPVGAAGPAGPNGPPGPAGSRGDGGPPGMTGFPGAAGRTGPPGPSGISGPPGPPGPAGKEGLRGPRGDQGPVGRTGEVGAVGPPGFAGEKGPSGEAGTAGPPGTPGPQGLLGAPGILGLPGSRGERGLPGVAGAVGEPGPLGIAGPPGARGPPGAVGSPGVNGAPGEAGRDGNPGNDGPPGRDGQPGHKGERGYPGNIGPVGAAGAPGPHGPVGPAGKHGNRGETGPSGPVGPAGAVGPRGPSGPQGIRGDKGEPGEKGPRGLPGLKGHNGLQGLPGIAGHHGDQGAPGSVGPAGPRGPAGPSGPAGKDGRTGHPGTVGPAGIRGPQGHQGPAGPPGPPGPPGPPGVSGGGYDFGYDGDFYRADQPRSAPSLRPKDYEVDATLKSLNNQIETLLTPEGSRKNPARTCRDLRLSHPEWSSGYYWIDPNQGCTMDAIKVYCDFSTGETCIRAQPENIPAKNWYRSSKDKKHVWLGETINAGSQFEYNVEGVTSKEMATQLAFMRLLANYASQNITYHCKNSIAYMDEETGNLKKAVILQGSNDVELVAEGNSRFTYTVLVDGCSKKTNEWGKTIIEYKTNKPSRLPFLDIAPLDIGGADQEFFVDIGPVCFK

B1: mouse-human chimeric IgG consisting of the mVH-hγ and mVL-hκ chains (antibody, V domains shown)
VH: QIQLVQSGPELKKPGETVKISCKASGYTFTDYPLHWVKQAPGKGLQWMAWINTETGEPTYADDFTGRFAFSLETSASTAYLQINNLKNEDTATYFCVRGYYYYWGQGTTLSVSS
VL: DIVMSQSPSSLAVSAGEKVTMSCKSSQSLLNSRTRKNNLAWYQQKPGQSPKLLIYWASTRESGVPDRFTGSGSGTDFTLTISSVQAEDLAVYYCKQSYNLWTFGGGTKLEIKR
notes: The constant regions are human IgG1 γ (pFUSE-CHIg-hG1) and human κ (pFUSE2-CLIg-hk); The antibody was expressed in CHO cells and purified on Protein-L; also called chimeric antibody; CHO-IgG
B1: binds [1].

B2: His-tagged yeast-derived A_L_K scFv variant (scFv)
scFv: QIQLVQSGPELKKPGETVKISCKASGYTFTDYPLHWVKQAPGKGLQWMAWINTETGEPTYADDFTGRFAFSLETSASTAYLQINNLKNEDTATYFCVRGYYYYWGQGTTLSVSSGGGGSGGGGSGGGGSGGGGSGGGGSGGGGSDIVMSQSPSSLAVSAGEKVTMSCKSSQSLLNSRTRKNNLAWYQQKPGQSPKLLIYWASTRESGVPDRFTGSGSGTDFTLTISSVQAEDLAVYYCKQSYNLWTFGGGTKLEIKRHHHHHH
notes: It was secreted from yeast using pPIC-9K; also called yeast scFv variant
B2: binds [2].

B3: bacterial-derived scFv variant (anti-α2Ct single chain antibody, FLAG-tagged) (scFv)
scFv: MDIVMSQSPSSLAVSAGEKVTMSCKSSQSLLNSRTRKNNLAWYQQKPGQSPKLLIYWASTRESGVPDRFTGSGSGTDFTLTISSVQAEDLAVYYCKQSYNLWTFGGGTKLEIKVDGGGGSGGGGSGGGGSLEQIQLVQSGPELKKPGETVKISCKASGYTFTDYPLHWVKQAPGKGLQWMAWINTETGEPTYADDFTGRFAFSLETSASTAYLQINNLKNEDTATYFCVRGYYYYWGQGTTLSVSSDYKDDDDK
B3: binds [3].
